# Columns and labels:
# [1] = molecular target: T1, microbial transglutaminase (mTG) (Streptomyces mobaraensis, UniProt P81453); test: mTG-mediated incorporation of biotin-X-cadaverine into peptides coupled on Covabtest plate; type: biochemical; settings: 15 nmoles peptide coupled to plate, biot-cad 0.1 mg/ml, mTG 10 ng/well
# T1 construct: purchased Covalab, France opr 0054
# T1 sequence (P81453 77-407): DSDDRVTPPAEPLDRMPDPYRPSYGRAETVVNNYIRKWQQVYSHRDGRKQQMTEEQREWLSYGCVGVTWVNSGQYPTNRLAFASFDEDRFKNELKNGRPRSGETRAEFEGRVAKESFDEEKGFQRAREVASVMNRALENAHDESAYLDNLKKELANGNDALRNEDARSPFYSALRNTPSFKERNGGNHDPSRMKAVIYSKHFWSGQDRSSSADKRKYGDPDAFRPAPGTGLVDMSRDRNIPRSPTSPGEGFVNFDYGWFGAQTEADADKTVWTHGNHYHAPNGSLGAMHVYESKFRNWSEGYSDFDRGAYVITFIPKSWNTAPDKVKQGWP
# Protocol: The coupling method was previously described by the Applicant (V. Thomas et al, 2004) and also in the corresponding data sheet of CovAbtest-Plate™ which is commercially available from Covalab (Ref #opr0004). Briefly, in separate tubes a solution mixture containing 150 μM of each peptide dissolved in 10 mM phosphate buffer pH5, 5 mM EDAC and 5 mM NHS was incubated for 30 min under gentle shaking. The resulting activated NHS-carboxyl C-terminal moiety of each peptide (15 nmoles) was used to be conjugated in each well of CovAbtest-Plate™ previously deprotonated during 15 min with 150 μl 0.6% sodium bicarbonate per well. The microtiter plate was then incubated during 2 hrs at room temperature and washed extensively with Tris Buffer Saline.
# For this experiment we used the same procedures described by V Thomas et all (2004) and also in the Covalab's commercialized kit (opr0033). Briefly the Lyophilized transglutaminase was reconstituted in 40 mM tris buffer pH 8 and 50 μl of each mTG at 200 ng/ml and at 40 ng/ml were added in the wells containing 50 μl of biotin-X-cadaverine. The enzymatic mixture was incubated for 15 min at room temperature under gentle shaking. Then the plates were washed 3 times with TBS-Tween20 followed by the addition of 100 μl of diluted HRP labeled streptavidine ( 1/2000 in TBS Tween20, 0.5% BSA) in each well. After 30 min at room temperature and 3 washings in TBS-Tween20, 100 μL of TMB substrate were added and after 5 min the colour development was stopped using 100 μl of 0.5 M sulfuric acid. Absorbances at 450 nm were measured using a microplate reader (Multiskan, Labsystems, Helsinki, Finland).
# To screen the peptide library (Covalab) and identify the putative new substrates of mTG we used Covabtest-peptide (described in B-I-1) in which the peptides were covalently coupled into the plates and the amine substrate Biotin-cadeverine (biot-cad) was free in solution. In this experiment 15 nmoles of each peptide (table 2) were covalently conjugated to microtiter plate and the incorporation of biot-cad (0.1 mg/ml) catalyzed by mTG (10 ng/well) was determined following the experiment described in B-II-1. Among all the peptides tested only few peptides were recognized by mTG as Gln (Q) donor to incorporate biot-cad as shown in the FIG. 1. The enzymatic activity was different between the peptide substrates. […] When Q is replaced by N (peptide HH12N11) no reactivity of the mTG was observed confirming the specificity of the enzyme to Gln donor. Moreover, if the reactivity of the 4 peptides (HH12Q11, DH6Q7, HG14Q11 and WG10Q7) is compared, it can be observed that the reactivity of the Gln depends on its position in the peptide sequence. In the most reactive peptides Q is located at the C-terminal. […]
# [2] = molecular target: T1, microbial transglutaminase (mTG); test: mTG incorporation of biot-cad into coated BSA-peptide conjugate, with free-peptide competition; type: biochemical; settings: 150 μM free peptide, mTG 100 ng/ml
# Protocol: 2 mg of each peptide was dissolved in 1 ml of deionized water and 150 nmoles were mixed with 0.5 mg BSA solubilized in 50 mM bicarbonate buffer pH9.5. After shaking, glutaraldehyde was added at a final concentration of 0.25% (v/v). The mixtures were kept at room temperature during 16 hrs under gentle shaking. At the end of this incubation time, sodium borohydride was added at a final concentration of 10 mg/ml to stabilize the cross-linking between BSA and the peptides. After 2 hours each mixture of peptide-BSA was dialyzed separately in PBS to remove any free peptides.
# High binding 96 wells-microtiter plates (Costar) were used to immobilize BSA-peptide and to human IgG-peptide conjugates prepared as described in M-4 and M-5. For these experiments, conjugates were prepared at 50 μg/ml in 50 mM sodium carbonate buffer pH 9 and 100 μl of each solution was dispensed in the number of wells needed for the experiment. After overnight incubation at 4° C., the plates were washed extensively with Tris Buffer Saline (TBS) and were ready to be used for TG activity.
# The same procedure was used as described in B-II-1
# In the literature its well known that many proteins are not substrate of transglutaminase even if many glutamine residues are present in their structures (Gorman J J, Folk J E. J Biol Chem. 1984 Jul. 25; 259(14):9007-10). […]
sequence,measurement,setting,value
HDLMWPDVYSQH (Peptide HH12Q11),reactivity as Gln donor for mTG incorporation of biot-cad,[1],good substrate for mTG
same,effect of added free peptide on mTG reactivity on BSA-HH12Q11,[2],decreased
